Test results published in patent publication US20250304690A1 (HANGZHOU VIROMAB BIOTECH, published 2025).
Changes are numbered by the printed parent chain.

B1: Ab-TT3 (antibody, V domains shown)
VH: EVQLEQSGPELVKPGASVKMSCKASGYTFTNYYMKWVKQSHGKSLEWIGDLNPNNGDTFYNQKFKGKATLTVDKSSNTAYMQLNSLTSEDSAVYYCARTGRYEENAMDYWGQGTSVTVSS
VL: ELVMTQSPASLAVSLGQRATISCRASESVDSYGKSFMHWYQLKPGQPPKLLIYRASNLESGVPARFSGSGSRTDFTLTIDPVEADDAATYYCQQNNEDPWTFGGGTKLEIK
notes: also called anti-Strep tag II antibody before humanization
B2: TT3 Ab-2 (antibody, human IgG1, kappa, V domains shown)
VH: QVQLVQSGAEVKKPGASVKVSCKASGYTFTNYYMKWVKQAPGQSLEWIGDLNPNNGDTFYNQKFKGRVTITVDKSASTAYMELNSLRSEDTAVYYCARTGRYEENAMDYWGQGTLVTVSS
VL: DLVMTQSPASLAVSPGQRATITCRASESVDSYGKSFMHWYQQKPGQPPKLLIYRASNLESGVPARFSGSGSRTDFTLTINPVEANDTANYYCQQNNEDPWTFGQGTKLEIKR
notes: also called humanized anti-TT3 monoclonal antibody
B3: TT3 Ab-3 (antibody, human IgG1, kappa)
heavy: not shown
light: DLVMTQSPASLAVSPGQRATITCRASESVDSYGKSFMHWYQLKPGQPPKLLIYRASNLESGVPARFSGSGSRTDFTLTINPVEANDTANYYCQQNNEDPWTFGQGTKLEIKRTVAAPSVFIFPPSDEQLKSGTASVVCLLNNFYPREAKVQWKVDNALQSGNSQESVTEQDSKDSTYSLSSTLTLSKADYEKHKVYACEVTHQGLSSPVTKSFNRGEC
notes: as for B2
B4: TT3 Ab-1 (antibody, human IgG1, kappa, V domains shown)
VH: B2 VH with S44R, I48M, N84S
VL: B2 VL with L2I, M4L
notes: as for B2
B5: BK-B-110 (bispecific antibody)
chain: ELVMTQSPASLAVSLGQRATISCRASESVDSYGKSFMHWYQLKPGQPPKLLIYRASNLESGVPARFSGSGSRTDFTLTIDPVEADDAATYYCQQNNEDPWTFGGGTKLEIKGSTSGSGKPGSGEGSTKGEVQLEQSGPELVKPGASVKMSCKASGYTFTNYYMKWVKQSHGKSLEWIGDLNPNNGDTFYNQKFKGKATLTVDKSSNTAYMQLNSLTSEDSAVYYCARTGRYEENAMDYWGQGTSVTVSSPCPAPEFEGGPSVFLFPPKPKDTLMISRTPEVTCVVVDVSHEDPEVKFNWYVDGVEVHNAKTKPREEQYNSTYRVVSVLTVLHQDWLNGKEYKCKVSNKALPASIEKTISKAKGQPREPQVYTLPPSREEMTKNQVSLTCLVKGFYPSDIAVEWESNGQPENNYKTTPPVLDSDGSFFLYSKLTVDKSRWQQGNVFSCSVMHEALHNHYTQKSLSLSPGKGGGGSGGGGSGGGGSQAVVTQESALTTSPGETVTLTCRSSTGAVTTSNYANWVQEKPDHLFTGLIGGTNKRAPGVPARFSGSLIGDKAALTITGAQTEDEAIYFCALWYSNLWVFGGGTKLTVLGGGGSGGGGSGGGGSEVKLLESGGGLVQPKGSLKLSCAASGFTFNTYAMNWVRQAPGKGLEWVARIRSKYNNYATYYADSVKDRFTISRDDSQSILYLQMNNLKTEDTAMYYCVRHGNFGNSYVSWFAYWGQGTLVTVSA
B6: BK-B-110-hu2 (bispecific antibody)
chain: ELVMTQSPASLAVSLGQRATISCRASESVDSYGKSFMHWYQLKPGQPPKLLIYRASNLESGVPARFSGSGSRTDFTLTIDPVEADDAATYYCQQNNEDPWTFGGGTKLEIKGSTSGSGKPGSGEGSTKGEVQLEQSGPELVKPGASVKMSCKASGYTFTNYYMKWVKQSHGKSLEWIGDLNPNNGDTFYNQKFKGKATLTVDKSSNTAYMQLNSLTSEDSAVYYCARTGRYEENAMDYWGQGTSVTVSSPCPAPEFEGGPSVFLFPPKPKDTLMISRTPEVTCVVVDVSHEDPEVKFNWYVDGVEVHNAKTKPREEQYNSTYRVVSVLTVLHQDWLNGKEYKCKVSNKALPASIEKTISKAKGQPREPQVYTLPPSREEMTKNQVSLTCLVKGFYPSDIAVEWESNGQPENNYKTTPPVLDSDGSFFLYSKLTVDKSRWQQGNVFSCSVMHEALHNHYTQKSLSLSPGKGGGGSGGGGSGGGGSQAVVTQEPSLTVSPGGTVTLTCRSSTGAVTTSNYANWVQQKPGQAPRTLIGGTNKRAPWVPARFSGSLLGDKAALTLSGAQPEDEAEYYCALWYSNLWVFGGGTKLTVLGGGGSGGGGSGGGGSEVQLVESGGGLVQPGGSLRLSCAASGFTFNTYAMNWVRQAPGKGLEWVARIRSKYNNYATYYADSVKDRFTISRDDSKNILYLQMNSLKTEDTAVYYCVRHGNFGNSYVSWFAYWGQGTLVTVSA
B7: BK-B-110-hu4 (bispecific antibody)
chain: B6 chain with V544T, D555G, V703M
B8: BK-B-110-hu6 (bispecific antibody)
chain: B6 chain with Q524E, V703M
B9: BK-B-110-hu3 (bispecific antibody)
chain: B6 chain with Q524E
B10: BK-B-110-hu5 (bispecific antibody)
chain: B6 chain with V703M
B11: BK-B-110-hu1 (bispecific antibody)
chain: B6 chain with V544T, D555G
B12: BK-D-07 (bispecific antibody, human IgG1, kappa)
heavy: QVQLVQSGAEVKKPGASVKVSCKASGYTFTNYYMKWVKQAPGQSLEWIGDLNPNNGDTFYNQKFKGKATLTVDKSASTAYMELNSLRSEDTAVYYCARTGRYEENAMDYWGQGTLVTVSSASTKGPSVFPLAPSSKSTSGGTAALGCLVKDYFPEPVTVSWNSGALTSGVHTFPAVLQSSGLYSLSSVVTVPSSSLGTQTYICNVNHKPSNTKVDKRVEPKSCDKTHTCPPCPAPEFEGGPSVFLFPPKPKDTLMISRTPEVTCVVVDVSHEDPEVKFNWYVDGVEVHNAKTKPREEQYNSTYRVVSVLTVLHQDWLNGKEYKCKVSNKALPASIEKTISKAKGQPREPQVYTLPPSREEMTKNQVSLTCLVKGFYPSDIAVEWESNGQPENNYKTTPPVLDSDGSFFLYSKLTVDKSRWQQGNVFSCSVMHEALHNHYTQKSLSLSPGKGGGGSGGGGSGGGGSQAVVTQEPSLTVSPGGTVTLTCRSSTGAVTTSNYANWVQQKPGQAPRGLIGGTNKRAPWTPARFSGSLLGGKAALTLSGAQPEDEAEYYCALWYSNLWVFGGGTKLTVLGGGGSGGGGSGGGGSEVQLVESGGGLVQPGGSLRLSCAASGFTFNTYAMNWVRQAPGKGLEWVARIRSKYNNYATYYADSVKDRFTISRDDSKNILYLQMNSLKTEDTAMYYCVRHGNFGNSYVSWFAYWGQGTLVTVSA
light: B3 light with L2I, M4L, L42Q
B13: BK-D-10 (bispecific antibody, human IgG1, kappa)
heavy: B12 heavy with I669S, M684V
light: B3 light
B14: BK-D-12 (bispecific antibody, human IgG1, kappa)
heavy: B12 heavy with S44R, I48M, K67R, A68V, L70I, N84S
light: B3 light
B15: BK-D-11 (bispecific antibody, human IgG1, kappa)
heavy: B12 heavy with S44R, I48M, K67R, A68V, L70I, N84S, I669S, M684V
light: B3 light with L2I, M4L, L42Q

Target: TT3 antigen (ELISA coating antigen)
Experiment: ELISA, plate-coated TT3 antigen
Procedure: The activity of the prepared humanized antibodies was assessed by ELISA as follows: The TT3 antigen was diluted to 0.5 g/mL using a coating solution and added to a 96-well plate at 100 L/well, and the plate was incubated overnight at 4° C. The plate was washed with PBST. Then 200 μL of an antibody blocking solution was added to each well, and blocking was performed at 37° C. for 2 h. The plate was washed with PBST. Different antibodies (initial concentration: 100 nM; serially diluted in a 1:6 ratio) were added at 100 L/well, and the plate was incubated at 37° C. for 2 h. The plate was washed with PBST. An HRP-bound goat anti-human/mouse IgG antibody was added at 100 μL/well, and the plate was incubated at 37° C. for 1 h. The plate was washed with PBST, and TMB was added at 100 L/well. Color development was performed at 37° C. for 10-20 min, and 50 µL of 2 M sulfuric acid was added to each well to stop the reaction. OD readings were taken at a wavelength of 450 nm.

| Binder | EC50 |
| --- | --- |
| B1 | 0.0878 nM |
| B2 | 0.0105 nM |
| B3 | 0.014 nM |
| B4 | 0.0104 nM |

Target: TT3 labeling polypeptide on cells
Experiment: flow cytometry (as for Table 1)

Chain of TT3 labeling polypeptide on cells (P01732 other isoform, or with tags, fused parts or gaps limits assumed): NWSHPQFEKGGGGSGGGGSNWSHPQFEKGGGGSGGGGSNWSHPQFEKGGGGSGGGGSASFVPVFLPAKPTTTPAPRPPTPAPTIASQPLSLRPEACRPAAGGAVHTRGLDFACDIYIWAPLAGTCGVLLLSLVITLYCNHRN

| Binder | binding result |
| --- | --- |
| B5 | binds |
| B6 | binds |
| B7 | binds |
| B8 | binds |
| B9 | binds |
| B10 | binds |
| B11 | binds |

Target: TT3 labeling polypeptide on cells
Experiment: flow cytometry on MC38-TT3 cells

| Binder | EC50 |
| --- | --- |
| B2 | 2.33 nM |
| B3 | 0.588 nM |
| B4 | 1.2 nM |

Target: TT3 labeling polypeptide on cells
Experiment: flow cytometry on HCT116-TT3 cells

| Binder | EC50 |
| --- | --- |
| B2 | 0.958 nM |
| B3 | 0.692 nM |
| B4 | 0.568 nM |

Target: T1, CD3 on Jurkat cells and on human T cells (human, UniProt P07766 23-207)
T1 construct: whole, on cells; also called CD3 end; CD3 antigen
Experiment: flow cytometry on Jurkat cells
Procedure: Jurkat cells were plated, washed with a FACS buffer, and centrifuged at 1200 rpm for 3-5 min. Then diluted antibodies with different concentrations were added at 100 L/well. The cells were incubated at 4° C. for 0.5 h, centrifuged at 1200 rpm for 3-5 min, and washed with a FACS buffer. Then a diluted goat anti-human IgG (FITC, Abcam/ab97224) antibody was added. The cells were incubated at 4° C. for 0.5 h, centrifuged at 1200 rpm for 3-5 min, washed with a FACS buffer, and resuspended in 50 μL of a FACs buffer, and assays were performed using a flow cytometer.

T1 sequence (P07766 23-207): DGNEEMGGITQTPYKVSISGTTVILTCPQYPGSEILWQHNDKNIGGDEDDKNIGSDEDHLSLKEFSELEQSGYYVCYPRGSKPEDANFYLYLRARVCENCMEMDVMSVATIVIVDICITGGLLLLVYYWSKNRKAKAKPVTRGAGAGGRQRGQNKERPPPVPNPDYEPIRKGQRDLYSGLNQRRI

| Binder | EC50 |
| --- | --- |
| B12 | 49.4 nM |
| B13 | 143 nM |
| B14 | 80.6 nM |
| B15 | 169 nM |

Target: TT3 labeling polypeptide on cells
Experiment: flow cytometry on SK-HEP-1-TT3 cells

| Binder | EC50 |
| --- | --- |
| B2 | 1.53 nM |
| B3 | 0.738 nM |
| B4 | 0.546 nM |

Target: TT3 labeling polypeptide on cells
Experiment: flow cytometry on HCT116-TT3 cells
Remark: another data set of the same source

| Binder | EC50 |
| --- | --- |
| B12 | 0.127 nM |
| B13 | 0.248 nM |
| B14 | 0.523 nM |
| B15 | 0.336 nM |
